The results in this text go back to article doi:10.1101/2024.12.05.627070.

For test [1], the target named is Rad52 (295-408) (S. cerevisiae). As to the kind of experiment: SEC-SAXS. (SEC sorts molecules by how far they enter the pores of the column.)
Test [2] concerns the target Rad51 (in yeast cells) (S. cerevisiae) (UniProt P25454). As to the kind of experiment: co-IP.
Test [3] addresses T1, Rad51 (full length, recombinant) (S. cerevisiae), P25454.
T1 chain: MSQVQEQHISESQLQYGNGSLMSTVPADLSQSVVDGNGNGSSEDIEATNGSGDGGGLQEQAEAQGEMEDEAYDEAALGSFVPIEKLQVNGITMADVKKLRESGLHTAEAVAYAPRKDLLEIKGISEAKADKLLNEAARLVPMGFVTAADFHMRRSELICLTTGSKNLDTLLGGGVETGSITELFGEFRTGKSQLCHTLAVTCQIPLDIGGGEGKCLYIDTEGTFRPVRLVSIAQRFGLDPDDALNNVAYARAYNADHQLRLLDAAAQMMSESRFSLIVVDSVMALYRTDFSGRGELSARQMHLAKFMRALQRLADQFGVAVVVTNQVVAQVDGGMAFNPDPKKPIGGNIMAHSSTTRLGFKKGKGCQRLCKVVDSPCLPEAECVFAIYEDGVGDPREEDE
Kind of test: SEC-SAXS. The note with it: remark: other sources report otherwise.

As a reminder, the stoichiometry N is the number of molecules, sites or subunits per partner or assembly. Molecule “Rad51 (full length, recombinant) (from UniProt P25454 1-400) (natural protein)” displayed a stoichiometry N in test [1] of 1.

For the molecule Rad52-K340E-FLAG (natural protein), the loss of interaction (%) against WT Rad52 in test [2] was determined as 30%. As for Rad52-T349A-FLAG (natural protein), the loss of interaction (%) against WT Rad52 in test [2] worked out at 85%.

B1: Rad51 (full length, recombinant), P25454 1-400 (natural protein)
chain: MSQVQEQHISESQLQYGNGSLMSTVPADLSQSVVDGNGNGSSEDIEATNGSGDGGGLQEQAEAQGEMEDEAYDEAALGSFVPIEKLQVNGITMADVKKLRESGLHTAEAVAYAPRKDLLEIKGISEAKADKLLNEAARLVPMGFVTAADFHMRRSELICLTTGSKNLDTLLGGGVETGSITELFGEFRTGKSQLCHTLAVTCQIPLDIGGGEGKCLYIDTEGTFRPVRLVSIAQRFGLDPDDALNNVAYARAYNADHQLRLLDAAAQMMSESRFSLIVVDSVMALYRTDFSGRGELSARQMHLAKFMRALQRLADQFGVAVVVTNQVVAQVDGGMAFNPDPKKPIGGNIMAHSSTTRLGFKKGKGCQRLCKVVDSPCLPEAECVFAIYEDGVGDPREEDE
Consider B1, for which the stoichiometry N in test [3] worked out at 4.
